The text below walks through data of US20240166755A1, “CHIMERIC ANTIGEN RECEPTORS TARGETING CANCER” (University of Southern California, priority 2016, published 2024).

For the experiment, the target named is human MPL (thrombopoietin receptor) (human) (UniProt P40238). In words: cell-based or functional assay.

B1: CD8SP-12E10-(vL-vH)-Myc-CD28z-T2A-PAC(031615-S03) (scFv)
chain: DQVQLQQSGPGLVKPSETLSLTCTVSGDSISSYYWSWIRQPPGKGLEWIGYIYYSGSTNYNPSLKSRVTISVDTSKSQFSLKLSSVTAADTAVYYCARGRYFDVWGRGTMVTSSGGGGSGGGGSGGGGSSSYVLTQPPSVSGSPGQSITISCTGTSSDVGGYNYVSWYQQHPGKAPKLMIYEGSKRPSGVSNRFSGSKSGNTASLTISGLQAEDEADYYCSSYTTRSTRVFGGGTKLTVLGAAATREQKLISEEDLKIEVMYPPPYLDNEKSNGTIIHVKGKHLCPSPLFPGPSKPFWVLVVVGGVLACYSLLVTVAFIIFWVRSKRSRLLHSDYMNMTPRRPGPTRKHYQPYAPPRDFAAYRSRVKFSRSADAPAYQQGQNQLYNELNLGRREEYDVLDKRRGRDPEMGGKPRRKNPQEGLYNELQKDKMAEAYSEIGMKGERRRGKGHDGLYQGLSTATKDTYDALHMQALPPRSSGSGEGRGSLLTCGDVEENPG
Molecule B1 registered a GFP induction (%) in CAR-expressing Jurkat-NFAT-EGFP cells, target cell line HEL of 5%; a GFP induction (%) in CAR-expressing Jurkat-NFAT-EGFP cells, target cell line RAJI-Mpl of 6%; a GFP induction (%) in CAR-expressing Jurkat-NFAT-EGFP cells, target cell line RAJI-vector of 4%.

B2: CD8SP-161-(vL-vH)-Myc-CD28z-T2A-PAC(021715-Z07) (scFv)
chain: DDIQMTQSSSSFSVSLGDRVTITCMASEDIYIRLAWYQQKPGNAPRLLISAATSLETGVPSRFSGSGSGKDYTLSITSLQTEDVGTYYCQQYWSSPWTFGGGTKLEINGGGGSGGGGSGGGGSDVQLQESGPGLVKPSQSLSLTCTVTGYSITSDYTWNWIRQFPGNKLEWMGYITYSGSTSYNPSLKSRNSITRDTSKNQFFLQLNSVTTEDTATYYCARLGRRYTMDYWGQGTSVTVSSTREQKLISEEDLKIEVMYPPPYLDNEKSNGTIIHVKGKHLCPSPLFPGPSKPFWVLVVVGGVLACYSLLVTVAFIIFWVRSKRSRLLHSDYMNMTPRRPGPTRKHYQPYAPPRDFAAYRSRVKFSRSADAPAYQQGQNQLYNELNLGRREEYDVLDKRRGRDPEMGGKPRRKNPQEGLYNELQKDKMAEAYSEIGMKGERRRGKGHDGLYQGLSTATKDTYDALHMQALPPRSSGSGEGRGSLLTCGDVEENPG
The molecule B2 returned a GFP induction (%) in CAR-expressing Jurkat-NFAT-EGFP cells, target cell line HEL of 14%; a GFP induction (%) in CAR-expressing Jurkat-NFAT-EGFP cells, target cell line RAJI-Mpl of 11%; a GFP induction (%) in CAR-expressing Jurkat-NFAT-EGFP cells, target cell line RAJI-vector of 5%.

B3: CD8SP-175-(vL-vH)-Myc-CD28z-T2A-PAC(031615-Q04) (scFv)
chain: DQIVLTQSPAIMSASPGEKVTISCSASSSVSYMYWYQQKPGSSPKPWIYRTSNLASGVPARFSGSGSGTSYSLTISNMEAEDAAAYYCQQYHSYPTTFGGGTKLEVKGGGGSGGGGSGGGGSEVQLVESGGGLVQPKGSLKLSCAASGFSFNTYAMNWVRQAPGKGLEWIAHIRSKSNNFATYYADSVKDRFSISRDASENILFLQMNNLKTEDTAMYYCVRQGGDFPMDYWGQGTSVTVSSTREQKLISEEDLKIEVMYPPPYLDNEKSNGTIIHVKGKHLCPSPLFPGPSKPFWVLVVVGGVLACYSLLVTVAFIIFWVRSKRSRLLHSDYMNMTPRRPGPTRKHYQPYAPPRDFAAYRSRVKFSRSADAPAYQQGQNQLYNELNLGRREEYDVLDKRRGRDPEMGGKPRRKNPQEGLYNELQKDKMAEAYSEIGMKGERRRGKGHDGLYQGLSTATKDTYDALHMQALPPRSSGSGEGRGSLLTCGDVEENPG
Turning to B3, the GFP induction (%) in CAR-expressing Jurkat-NFAT-EGFP cells, target cell line HEL turned out to be 33%; the GFP induction (%) in CAR-expressing Jurkat-NFAT-EGFP cells, target cell line RAJI-Mpl turned out to be 18%; the GFP induction (%) in CAR-expressing Jurkat-NFAT-EGFP cells, target cell line RAJI-vector worked out at 11%.

B4: CD8SP-178-(vL-vH)-Myc-CD28z-T2A-PAC(031615-R04) (scFv)
chain: DIVMTQAAPSIPVTPGESVSISCRSDKSLLHSNGNTYLFWFLQRPGQSPQLLIYRMSNLASGVPDRFSGSGSGTAFTLRISGVEAEDVGVYYCMQHLEYPYTFGGGTKLEIKGGGGSGGGGSGGGGSQVQLQQSGPELVKPGASVKMSCKASGYAFSSSWLNWVRQRPGKGLEWIGRIYPGDGENHYNGKFKGKATLTADKSSSTGYMQLSSLTSEDSAVYFCASYYEGGYWGQGTLITVSATREQKLISEEDLKIEVMYPPPYLDNEKSNGTIIHVKGKHLCPSPLFPGPSKPFWVLVVVGGVLACYSLLVTVAFIIFWVRSKRSRLLHSDYMNMTPRRPGPTRKHYQPYAPPRDFAAYRSRVKFSRSADAPAYQQGQNQLYNELNLGRREEYDVLDKRRGRDPEMGGKPRRKNPQEGLYNELQKDKMAEAYSEIGMKGERRRGKGHDGLYQGLSTATKDTYDALHMQALPPRSSGSGEGRGSLLTCGDVEENPG
The molecule B4 returned a GFP induction (%) in CAR-expressing Jurkat-NFAT-EGFP cells, target cell line HEL of 2%; a GFP induction (%) in CAR-expressing Jurkat-NFAT-EGFP cells, target cell line RAJI-Mpl of 3%; a GFP induction (%) in CAR-expressing Jurkat-NFAT-EGFP cells, target cell line RAJI-vector of 4%.

B5: CD8SP-AB317-(vL-vH)-Myc-CD28z-T2A-PAC(031615-T04) (scFv)
chain: DIVLTQSPASLAVSLGQSVTISCRASESVEYYGTSLMQWYQQKPGQPPKLLIYGASNVESGVPARFSGSGSGTDFSLNIHPVEEDDIAMYFCQQSRKVPWTFGGGTKLEIKGGGGSGGGGSGGGGSEVKLVESGGGLVKPGGSRKLSCAASGFTFSSYTMSWVRQTPAKRLEWVATISSGSSTIYYADTVKGRFTISRDNAKNTLFLQMTSLRSEDTAMYYCARRWFLDCWGQGTTLTVSSTREQKLISEEDLKIEVMYPPPYLDNEKSNGTIIHVKGKHLCPSPLFPGPSKPFWVLVVVGGVLACYSLLVTVAFIIFWVRSKRSRLLHSDYMNMTPRRPGPTRKHYQPYAPPRDFAAYRSRVKFSRSADAPAYQQGQNQLYNELNLGRREEYDVLDKRRGRDPEMGGKPRRKNPQEGLYNELQKDKMAEAYSEIGMKGERRRGKGHDGLYQGLSTATKDTYDALHMQALPPRSSGSGEGRGSLLTCGDVEENPG
Molecule B5 displayed a GFP induction (%) in CAR-expressing Jurkat-NFAT-EGFP cells, target cell line HEL of 1%; a GFP induction (%) in CAR-expressing Jurkat-NFAT-EGFP cells, target cell line RAJI-Mpl of 6%; a GFP induction (%) in CAR-expressing Jurkat-NFAT-EGFP cells, target cell line RAJI-vector of 3%.
